The supplement of paper PMC11246515
± gives the standard deviation of the averaged measurements.

Assay: total protein half-life in vivo (active degradation + dilution); higher = more stable protein
[1] = E. coli NCM3722 delta-clpP delta-lon delta-hslV, growth: N-lim chemostat, doubling time 6 h
[2] = E. coli NCM3722 delta-clpP, growth: N-lim chemostat, doubling time 6 h
[3] = E. coli NCM3722 delta-hslV, growth: N-lim chemostat, doubling time 6 h
[4] = E. coli NCM3722 delta-lon, growth: N-lim chemostat, doubling time 6 h
[5] = E. coli NCM3722 delta-smpB, growth: N-lim chemostat, doubling time 6 h
[6] = wild type E. coli NCM3722, growth: C-lim chemostat, doubling time 3 h
[7] = wild type E. coli NCM3722, growth: C-lim chemostat, doubling time 6 h
[8] = wild type E. coli NCM3722, growth: C-lim chemostat, doubling time 12 h
[9] = wild type E. coli NCM3722, growth: N-lim chemostat, doubling time 6 h
[10] = wild type E. coli NCM3722, growth: N-lim chemostat, doubling time 12 h
[11] = wild type E. coli NCM3722, growth: P-lim chemostat, doubling time 6 h
[12] = wild type E. coli NCM3722, growth: P-lim chemostat, doubling time 12 h

## MIEFKNVSKHFGPTQVLHNIDLNIAQGEVVVIIGPSGSGKSTLLRCINKLEEITSGDLIVDGLKVNDPKVDERLIRQEAGMVFQQFYLFPHLTALENVMFGPLRVRGANKEEAEKLARELLAKVGLAERAHHYPSELSGGQQQRVAIARALAVKPKMMLFDEPTSALDPELRHEVLKVMQDLAEEGMTMVIVTHEIGFAEKVASRLIFIDKGRIAEDGNPQVLIKNPPSQRLQEFLQHVS
[1]
  total protein half-life in vivo: 6.81 ± 0.9 h
[2]
  total protein half-life in vivo: 5.7293 ± 0.0055 h
[3]
  total protein half-life in vivo: 5.292 ± 0.039 h
[4]
  total protein half-life in vivo: 5.12 ± 0.18 h
[5]
  total protein half-life in vivo: 5.72 ± 0.6 h
[6]
  total protein half-life in vivo: 2.93 ± 0.62 h
[7]
  total protein half-life in vivo: 4.88 ± 1.6 h
[8]
  total protein half-life in vivo: 11.9 ± 0.78 h
[9]
  total protein half-life in vivo: 6.79 h
[10]
  total protein half-life in vivo: 11.5 ± 0.64 h
[11]
  total protein half-life in vivo: 5.25 h
[12]
  total protein half-life in vivo: 12.5 ± 0.99 h

## MIEFSHVSKLFGAQKAVNDLNLNFQEGSFSVLIGTSGSGKSTTLKMINRLVEHDSGEIRFAGEEIRSLPVLELRRRMGYAIQSIGLFPHWSVAQNIATVPQLQKWSRARIDDRIDELMALLGLESNLRERYPHQLSGGQQQRVGVARALAADPQVLLMDEPFGALDPVTRGALQQEMTRIHRLLGRTIVLVTHDIDEALRLAEHLVLMDHGEVVQQGNPLTMLTRPANDFVRQFFGRSELGVRLLSLRSVADYVRREERADGEALAEEMTLRDALSLFVARGCEVLPVVNMQGQPCGTLHFQDLLVEA
[1]
  total protein half-life in vivo: 5.87 ± 0.78 h
[2]
  total protein half-life in vivo: 5.31 ± 0.036 h
[4]
  total protein half-life in vivo: 4.82 h
[5]
  total protein half-life in vivo: 4.51 ± 0.06 h
[6]
  total protein half-life in vivo: 2.77 ± 0.11 h
[7]
  total protein half-life in vivo: 4.96 ± 0.22 h
[8]
  total protein half-life in vivo: 8.02 ± 0.57 h
[9]
  total protein half-life in vivo: 5.05 ± 0.085 h
[10]
  total protein half-life in vivo: 7.777 ± 0.046 h
[11]
  total protein half-life in vivo: 4.85 ± 0.33 h
[12]
  total protein half-life in vivo: 8.835 ± 0.04 h

## MIEIESRELADIPVLHAYPVGQKDTPLPCVIFYHGFTSSSLVYSYFAVALAQAGLRVIMPDAPDHGSRFSGDAARRLNQFWQILLQSMQEFTTLRAAIAEENWLLDDRLAVGGASMGAMTALGITARHPTVRCTASMMGSGYFTSLARSLFPPLIPETAAQQNEFNNIVAPLAEWEATNHLEQLSDRPLLLWHGLDDDVVPADESLRLQQALSETGRDKLLTCSWQPGVRHRITPEALDAAVTFFRQHL
[1]
  total protein half-life in vivo: 4.25 ± 0.61 h
[3]
  total protein half-life in vivo: 4.061 ± 0.029 h
[4]
  total protein half-life in vivo: 4.32 ± 0.38 h
[5]
  total protein half-life in vivo: 3.95 ± 0.12 h
[6]
  total protein half-life in vivo: 3.24 ± 0.097 h
[7]
  total protein half-life in vivo: 5.72 ± 0.33 h
[8]
  total protein half-life in vivo: 11 ± 0.45 h
[9]
  total protein half-life in vivo: 4.11 ± 0.3 h
[10]
  total protein half-life in vivo: 6.87 ± 0.64 h
[11]
  total protein half-life in vivo: 5.95 ± 0.17 h
[12]
  total protein half-life in vivo: 12.2 ± 0.79 h

## MIEKIWSGESPLWRLLLPLSWLYGLVSGAIRLCYKLKLKRAWRAPVPVVVVGNLTAGGNGKTPVVVWLVEQLQQRGIRVGVVSRGYGGKAESYPLLLSADTTTAQAGDEPVLIYQRTDAPVAVSPVRSDAVKAILAQHPDVQIIVTDDGLQHYRLARDVEIVVIDGVRRFGNGWWLPAGPMRERAGRLKSVDAVIVNGGVPRSGEIPMHLLPGQAVNLRTGTRCDVAQLEHVVAMAGIGHPPRFFATLKMCGVQPEKCVPLADHQSLNHADVSALVSAGQTLVMTEKDAVKCRAFAEENWWYLPVDAQLSGDEPAKLLTQLTLLASGN
[1]
  total protein half-life in vivo: 6.05 ± 0.42 h
[2]
  total protein half-life in vivo: 6.49 h
[3]
  total protein half-life in vivo: 6.52 ± 1.2 h
[4]
  total protein half-life in vivo: 6.39 ± 0.34 h
[5]
  total protein half-life in vivo: 5.71 ± 0.64 h
[6]
  total protein half-life in vivo: 3.11 ± 0.41 h
[7]
  total protein half-life in vivo: 7.25 ± 0.18 h
[8]
  total protein half-life in vivo: 8.44 h
[9]
  total protein half-life in vivo: 5.52 h
[12]
  total protein half-life in vivo: 13.8 ± 2 h

## MIENRPWLTIFSHTMLILGIAVILFPLYVAFVAATLDKQAVYAAPMTLIPGTHLLENIHNIWVNGVGTNSAPFWRMLLNSFVMAFSITLGKITVSMLSAFAIVWFRFPLRNLFFWMIFITLMLPVEVRIFPTVEVIANLQMLDSYAGLTLPLMASATATFLFRQFFMTLPDELVEAARIDGASPMRFFCDIVFPLSKTNLAALFVITFIYGWNQYLWPLLIITDVDLGTTVAGIKGMIATGEGTTEWNSVMVAMLLTLIPPVVIVLVMQRAFVRGLVDSEK
[8]
  total protein half-life in vivo: 14.5 h
[11]
  total protein half-life in vivo: 6.34 h
[12]
  total protein half-life in vivo: 12.6 ± 2.1 h

## MIEQFFRPDSVEQALELKRRYQDEAVWFAGGSKLNATPTRTDKKIAISLQDLELDWVDWDNGALRIGAMSRLQPLRDARFIPAALREALGFVYSRHVRNQSTIGGEIAARQEESVLLPVLLALDAELVFGNGETLSIEDYLACPCDRLLTEIIIKDPYRTCATRKISRSQAGLTVVTAAVAMTDHDGMRIALDGVASKALRLHDVEKQNLEGNALEQAVANAIFPQEDLRGSVAYKRYITGVLVADLYADCQQAGEEAV
[4]
  total protein half-life in vivo: 0.974 h

## MIEWIIRRSVANRFLVLMGALFLSIWGTWTIINTPVDALPDLSDVQVIIKTSYPGQAPQIVENQVTYPLTTTMLSVPGAKTVRGFSQFGDSYVYVIFEDGTDPYWARSRVLEYLNQVQGKLPAGVSAELGPDATGVGWIYEYALVDRSGKHDLADLRSLQDWFLKYELKTIPDVAEVASVGGVVKEYQVVIDPQRLAQYGISLAEVKSALDASNQEAGGSSIELAEAEYMVRASGYLQTLDDFNHIVLKASENGVPVYLRDVAKVQIGPEMRRGIAELNGEGEVAGGVVILRSGKNAREVIAAVKDKLETLKSSLPEGVEIVTTYDRSQLIDRAIDNLSGKLLEEFIVVAVVCALFLWHVRSALVAIISLPLGLCIAFIVMHFQGLNANIMSLGGIAIAVGAMVDAAIVMIENAHKRLEEWQHQHPDATLDNKTRWQVITDASVEVGPALFISLLIITLSFIPIFTLEGQEGRLFGPLAFTKTYAMAGAALLAIVVIPILMGYWIRGKIPPESSNPLNRFLIRVYHPLLLKVLHWPKTTLLVAALSVLTVLWPLNKVGGEFLPQINEGDLLYMPSTLPGISAAEAASMLQKTDKLIMSVPEVARVFGKTGKAETATDSAPLEMVETTIQLKPQEQWRPGMTMDKIIEELDNTVRLPGLANLWVPPIRNRIDMLSTGIKSPIGIKVSGTVLADIDAMAEQIEEVARTVPGVASALAERLEGGRYINVEINREKAARYGMTVADVQLFVTSAVGGAMVGETVEGIARYPINLRYPQSWRDSPQALRQLPILTPMKQQITLADVADIKVSTGPSMLKTENARPTSWIYIDARDRDMVSVVHDLQKAIAEKVQLKPGTSVAFSGQFELLERANHKLKLMVPMTLMIIFVLLYLAFRRVGEALLIISSVPFALVGGIWLLWWMGFHLSVATGTGFIALAGVAAEFGVVMLMYLRHAIEAVPSLNNPQTFSEQKLDEALYHGAVLRVRPKAMTVAVIIAGLLPILWGTGAGSEVMSRIAAPMIGGMITAPLLSLFIIPAAYKLMWLHRHRVRK
[4]
  total protein half-life in vivo: > 8 h
[5]
  total protein half-life in vivo: 6.09 h
[7]
  total protein half-life in vivo: 7.07 h
[8]
  total protein half-life in vivo: > 16 h
[9]
  total protein half-life in vivo: 5.97 ± 0.71 h
[10]
  total protein half-life in vivo: 12.6 ± 3.8 h
[11]
  total protein half-life in vivo: 6.31 ± 0.89 h
[12]
  total protein half-life in vivo: 12.7 ± 0.39 h
